From paper PMC11910589
Where two headings read alike, the source gives them in different places.

Experiments:
Assay in all cases: fluorescence polarization
[1] = biological target: T1, dP75 PWWP (Drosophila melanogaster, UniProt Q9VAA9 9-90)
T1 sequence: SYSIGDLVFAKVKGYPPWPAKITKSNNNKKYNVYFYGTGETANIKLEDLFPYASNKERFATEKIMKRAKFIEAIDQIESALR

[2] = biological target: T2, dP75 PWWP F43A (Drosophila melanogaster, UniProt Q9VAA9 9-90, F43A)
T2 sequence: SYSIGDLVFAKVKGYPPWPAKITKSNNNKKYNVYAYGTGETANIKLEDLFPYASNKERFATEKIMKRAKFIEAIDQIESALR

[3] = biological target: T3, dP75 PWWP Y23A (Drosophila melanogaster, UniProt Q9VAA9 9-90, Y23A)
T3 sequence: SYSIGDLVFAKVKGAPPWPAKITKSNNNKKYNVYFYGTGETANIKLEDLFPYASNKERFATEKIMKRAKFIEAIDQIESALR

[4] = biological target: LEDGF/p75 PWWP (Homo sapiens, UniProt O75475 4-89)
Chain of LEDGF/p75 PWWP (O75475 4-89): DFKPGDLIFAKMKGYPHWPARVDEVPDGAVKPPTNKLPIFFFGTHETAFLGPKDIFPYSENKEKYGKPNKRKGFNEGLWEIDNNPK

[5] = biological target: T1, dP75 PWWP; remark: listed apart in the source
[6] = biological target: T4, dP75 PWWP K53A (Drosophila melanogaster, UniProt Q9VAA9 9-90, K53A)
T4 sequence: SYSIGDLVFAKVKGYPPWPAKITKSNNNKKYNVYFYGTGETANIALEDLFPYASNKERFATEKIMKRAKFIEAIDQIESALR

[7] = biological target: T5, dP75 PWWP K38A (Drosophila melanogaster, UniProt Q9VAA9 9-90, K38A)
T5 sequence: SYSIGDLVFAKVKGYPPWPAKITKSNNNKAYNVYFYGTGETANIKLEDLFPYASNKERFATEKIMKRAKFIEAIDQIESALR

[8] = biological target: T6, dP75 PWWP E48A (Drosophila melanogaster, UniProt Q9VAA9 9-90, E48A)
T6 sequence: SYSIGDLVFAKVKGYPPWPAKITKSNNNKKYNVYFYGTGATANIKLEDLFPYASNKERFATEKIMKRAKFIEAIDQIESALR

[9] = biological target: T1, dP75 PWWP; remark: listed apart in the source
[10] = biological target: T1, dP75 PWWP; remark: listed apart in the source

B1: 12 bp poly(A:T) (dsDNA)
DNA 1: TTTTTTTTTTTT
DNA 2: AAAAAAAAAAAA
- Kd [1]: 18.2 ± 1.17 µM

Binder: TTTTTTTTTTTT (ssDNA) [FAM-12T (polyT)]
- binding result [2]: no binding
- binding result [3]: no binding
- binding result [4]: no binding
- Kd [5]: 24.2 ± 1.1 µM
- Kd [6]: 109 ± 2.9 µM
- Kd [7]: 60.9 ± 0.9 µM
- Kd [8]: 64.2 ± 2.8 µM

B2: 20 bp random (dsDNA)
DNA 1: CGATCTGCGTCAGCTGTAGC
DNA 2: GCTACAGCTGACGCAGATCG
- binding result [5]: no binding

Binder: AAAAAAAAAAAA (ssDNA) [FAM-12A (polyA)]
- binding result [9]: no binding

Binder: GGGGGGGGGGGG (ssDNA) [FAM-12G (polyG)]
- binding result [10]: no binding

Binder: CCCCCCCCCCCC (ssDNA) [FAM-12C (polyC)]
- Kd [5]: 151 ± 38.9 µM

B3: 12 bp poly(G:C) (dsDNA)
DNA 1: GGGGGGGGGGGG
DNA 2: CCCCCCCCCCCC
- binding result [5]: no binding
